The results in this text go back to PMC10786891, “Massively parallel profiling of RNA-targeting CRISPR-Cas13d”.

First the molecules themselves.
T1: EsCas13d, nuclease-dead (Eubacterium siraeum, UniProt B0MS50, R295A;H300A;R849A;H854A)
T1 sequence: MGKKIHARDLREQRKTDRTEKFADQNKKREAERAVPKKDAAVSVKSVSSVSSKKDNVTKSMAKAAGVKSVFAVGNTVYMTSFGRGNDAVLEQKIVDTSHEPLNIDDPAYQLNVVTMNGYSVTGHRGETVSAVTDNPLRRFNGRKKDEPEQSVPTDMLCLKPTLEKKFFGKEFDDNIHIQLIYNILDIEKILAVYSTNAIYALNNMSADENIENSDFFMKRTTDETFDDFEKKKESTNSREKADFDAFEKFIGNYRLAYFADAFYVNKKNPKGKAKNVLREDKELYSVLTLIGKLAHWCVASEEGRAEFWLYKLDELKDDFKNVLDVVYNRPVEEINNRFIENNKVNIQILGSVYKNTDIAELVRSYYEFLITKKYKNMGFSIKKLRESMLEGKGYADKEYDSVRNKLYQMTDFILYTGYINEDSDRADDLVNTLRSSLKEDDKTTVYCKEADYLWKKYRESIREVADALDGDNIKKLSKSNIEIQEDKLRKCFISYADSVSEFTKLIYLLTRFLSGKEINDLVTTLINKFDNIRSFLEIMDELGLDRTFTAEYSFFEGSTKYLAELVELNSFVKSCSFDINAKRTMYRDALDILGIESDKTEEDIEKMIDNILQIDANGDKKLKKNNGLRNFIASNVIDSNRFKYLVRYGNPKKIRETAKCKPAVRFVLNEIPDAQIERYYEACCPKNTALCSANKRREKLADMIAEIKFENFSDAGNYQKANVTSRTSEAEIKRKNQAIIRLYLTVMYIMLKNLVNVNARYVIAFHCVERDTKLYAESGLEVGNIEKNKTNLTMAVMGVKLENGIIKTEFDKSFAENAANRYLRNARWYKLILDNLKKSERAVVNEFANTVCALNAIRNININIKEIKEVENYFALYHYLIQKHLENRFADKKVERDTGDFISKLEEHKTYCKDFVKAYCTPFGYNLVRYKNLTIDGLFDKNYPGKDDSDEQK

B1: target 1 MT 5'PFS AAG 3'PFS ACC (mixed)
RNA 1: CACCCGUGCAAAAAUGCAGGGGUCUAAAACUGAGCGGAUAACCUCUCUAUGG
RNA 2: GGGAAUGGAUCCACAUCUACGAAUUCAAGCCAUAGAGAGGUUAUCCGCUCAACCAGAUCGGAAGAGCACACGU
B2: target 1 MT 5'PFS GUG 3'PFS AUC (mixed)
RNA 1: CACCCGUGCAAAAAUGCAGGGGUCUAAAACUGAGCGGAUAACCUCUCUAUGG
RNA 2: GGGAAUGGAUCCACAUCUACGAAUUCGUGCCAUAGAGAGGUUAUCCGCUCAAUCAGAUCGGAAGAGCACACGU
B3: target 1 MT 5'PFS GUU 3'PFS UAA (mixed)
RNA 1: CACCCGUGCAAAAAUGCAGGGGUCUAAAACUGAGCGGAUAACCUCUCUAUGG
RNA 2: GGGAAUGGAUCCACAUCUACGAAUUCGUUCCAUAGAGAGGUUAUCCGCUCAUAAAGAUCGGAAGAGCACACGU
B4: target 1 MT 5'PFS GCG 3'PFS UCA (mixed)
RNA 1: CACCCGUGCAAAAAUGCAGGGGUCUAAAACUGAGCGGAUAACCUCUCUAUGG
RNA 2: GGGAAUGGAUCCACAUCUACGAAUUCGCGCCAUAGAGAGGUUAUCCGCUCAUCAAGAUCGGAAGAGCACACGU
B5: target 1 MT 5'PFS GUG 3'PFS AUA (mixed)
RNA 1: CACCCGUGCAAAAAUGCAGGGGUCUAAAACUGAGCGGAUAACCUCUCUAUGG
RNA 2: GGGAAUGGAUCCACAUCUACGAAUUCGUGCCAUAGAGAGGUUAUCCGCUCAAUAAGAUCGGAAGAGCACACGU
B6: target 1 MT 5'PFS ACU 3'PFS UCU (mixed)
RNA 1: CACCCGUGCAAAAAUGCAGGGGUCUAAAACUGAGCGGAUAACCUCUCUAUGG
RNA 2: GGGAAUGGAUCCACAUCUACGAAUUCACUCCAUAGAGAGGUUAUCCGCUCAUCUAGAUCGGAAGAGCACACGU
B7: target 1 MT 5'PFS GUU 3'PFS ACG (mixed)
RNA 1: CACCCGUGCAAAAAUGCAGGGGUCUAAAACUGAGCGGAUAACCUCUCUAUGG
RNA 2: GGGAAUGGAUCCACAUCUACGAAUUCGUUCCAUAGAGAGGUUAUCCGCUCAACGAGAUCGGAAGAGCACACGU
B8: target 1 A1U,G12U (mixed)
RNA 1: CACCCGUGCAAAAAUGCAGGGGUCUAAAACUGAGCGGAUAACCUCUCUAUGG
RNA 2: GGGAAUGGAUCCACAUCUACGAAUUCGUACCAUAGAGAGUUUAUCCGCUCUCCGAGAUCGGAAGAGCACACGU
B9: target 1 MT 5'PFS GAA 3'PFS UCU (mixed)
RNA 1: CACCCGUGCAAAAAUGCAGGGGUCUAAAACUGAGCGGAUAACCUCUCUAUGG
RNA 2: GGGAAUGGAUCCACAUCUACGAAUUCGAACCAUAGAGAGGUUAUCCGCUCAUCUAGAUCGGAAGAGCACACGU
B10: target 1 MT 5'PFS GCG 3'PFS UCC (mixed)
RNA 1: CACCCGUGCAAAAAUGCAGGGGUCUAAAACUGAGCGGAUAACCUCUCUAUGG
RNA 2: GGGAAUGGAUCCACAUCUACGAAUUCGCGCCAUAGAGAGGUUAUCCGCUCAUCCAGAUCGGAAGAGCACACGU
B11: target 1 MT 5'PFS UAG 3'PFS CCG (mixed)
RNA 1: CACCCGUGCAAAAAUGCAGGGGUCUAAAACUGAGCGGAUAACCUCUCUAUGG
RNA 2: GGGAAUGGAUCCACAUCUACGAAUUCUAGCCAUAGAGAGGUUAUCCGCUCACCGAGAUCGGAAGAGCACACGU
B12: target 1 MT 5'PFS GUU 3'PFS ACA (mixed)
RNA 1: CACCCGUGCAAAAAUGCAGGGGUCUAAAACUGAGCGGAUAACCUCUCUAUGG
RNA 2: GGGAAUGGAUCCACAUCUACGAAUUCGUUCCAUAGAGAGGUUAUCCGCUCAACAAGAUCGGAAGAGCACACGU
B13: target 1 MT 5'PFS GAA 3'PFS UCC (mixed)
RNA 1: CACCCGUGCAAAAAUGCAGGGGUCUAAAACUGAGCGGAUAACCUCUCUAUGG
RNA 2: GGGAAUGGAUCCACAUCUACGAAUUCGAACCAUAGAGAGGUUAUCCGCUCAUCCAGAUCGGAAGAGCACACGU
B14: target 1 MT 5'PFS GAA 3'PFS UCA (mixed)
RNA 1: CACCCGUGCAAAAAUGCAGGGGUCUAAAACUGAGCGGAUAACCUCUCUAUGG
RNA 2: GGGAAUGGAUCCACAUCUACGAAUUCGAACCAUAGAGAGGUUAUCCGCUCAUCAAGAUCGGAAGAGCACACGU
B15: target 1 MT 5'PFS GUU 3'PFS UAG (mixed)
RNA 1: CACCCGUGCAAAAAUGCAGGGGUCUAAAACUGAGCGGAUAACCUCUCUAUGG
RNA 2: GGGAAUGGAUCCACAUCUACGAAUUCGUUCCAUAGAGAGGUUAUCCGCUCAUAGAGAUCGGAAGAGCACACGU
B16: target 1 MT 5'PFS AUG 3'PFS UCC (mixed)
RNA 1: CACCCGUGCAAAAAUGCAGGGGUCUAAAACUGAGCGGAUAACCUCUCUAUGG
RNA 2: GGGAAUGGAUCCACAUCUACGAAUUCAUGCCAUAGAGAGGUUAUCCGCUCAUCCAGAUCGGAAGAGCACACGU
B17: target 1 MT 5'PFS GUU 3'PFS UAC (mixed)
RNA 1: CACCCGUGCAAAAAUGCAGGGGUCUAAAACUGAGCGGAUAACCUCUCUAUGG
RNA 2: GGGAAUGGAUCCACAUCUACGAAUUCGUUCCAUAGAGAGGUUAUCCGCUCAUACAGAUCGGAAGAGCACACGU
B18: target 1 MT 5'PFS UAG 3'PFS CCC (mixed)
RNA 1: CACCCGUGCAAAAAUGCAGGGGUCUAAAACUGAGCGGAUAACCUCUCUAUGG
RNA 2: GGGAAUGGAUCCACAUCUACGAAUUCUAGCCAUAGAGAGGUUAUCCGCUCACCCAGAUCGGAAGAGCACACGU
B19: target 1 MT 5'PFS GCG 3'PFS UCU (mixed)
RNA 1: CACCCGUGCAAAAAUGCAGGGGUCUAAAACUGAGCGGAUAACCUCUCUAUGG
RNA 2: GGGAAUGGAUCCACAUCUACGAAUUCGCGCCAUAGAGAGGUUAUCCGCUCAUCUAGAUCGGAAGAGCACACGU
B20: target 1 MT 5'PFS GUU 3'PFS UAU (mixed)
RNA 1: CACCCGUGCAAAAAUGCAGGGGUCUAAAACUGAGCGGAUAACCUCUCUAUGG
RNA 2: GGGAAUGGAUCCACAUCUACGAAUUCGUUCCAUAGAGAGGUUAUCCGCUCAUAUAGAUCGGAAGAGCACACGU
B21: target 1 MT 5'PFS GCG 3'PFS UCG (mixed)
RNA 1: CACCCGUGCAAAAAUGCAGGGGUCUAAAACUGAGCGGAUAACCUCUCUAUGG
RNA 2: GGGAAUGGAUCCACAUCUACGAAUUCGCGCCAUAGAGAGGUUAUCCGCUCAUCGAGAUCGGAAGAGCACACGU
B22: target 1 MT 5'PFS AAG 3'PFS ACG (mixed)
RNA 1: CACCCGUGCAAAAAUGCAGGGGUCUAAAACUGAGCGGAUAACCUCUCUAUGG
RNA 2: GGGAAUGGAUCCACAUCUACGAAUUCAAGCCAUAGAGAGGUUAUCCGCUCAACGAGAUCGGAAGAGCACACGU
B23: target 1 insC 3' of 20,insC 3' of 15 (mixed)
RNA 1: CACCCGUGCAAAAAUGCAGGGGUCUAAAACUGAGCGGAUAACCUCUCUAUGG
RNA 2: GGGAAUGGAUCCACAUCUACGAAUUCGUACCACUAGAGCAGGUUAUCCGCUCACCGAGAUCGGAAGAGCACACGU
B24: target 1 MT 5'PFS CCG 3'PFS CGG (mixed)
RNA 1: CACCCGUGCAAAAAUGCAGGGGUCUAAAACUGAGCGGAUAACCUCUCUAUGG
RNA 2: GGGAAUGGAUCCACAUCUACGAAUUCCCGCCAUAGAGAGGUUAUCCGCUCACGGAGAUCGGAAGAGCACACGU
B25: target 1 MT 5'PFS UCA 3'PFS CCU (mixed)
RNA 1: CACCCGUGCAAAAAUGCAGGGGUCUAAAACUGAGCGGAUAACCUCUCUAUGG
RNA 2: GGGAAUGGAUCCACAUCUACGAAUUCUCACCAUAGAGAGGUUAUCCGCUCACCUAGAUCGGAAGAGCACACGU
B26: target 1 MT 5'PFS GAA 3'PFS UCG (mixed)
RNA 1: CACCCGUGCAAAAAUGCAGGGGUCUAAAACUGAGCGGAUAACCUCUCUAUGG
RNA 2: GGGAAUGGAUCCACAUCUACGAAUUCGAACCAUAGAGAGGUUAUCCGCUCAUCGAGAUCGGAAGAGCACACGU
B27: target 1 MT 5'PFS CUA 3'PFS CAG (mixed)
RNA 1: CACCCGUGCAAAAAUGCAGGGGUCUAAAACUGAGCGGAUAACCUCUCUAUGG
RNA 2: GGGAAUGGAUCCACAUCUACGAAUUCCUACCAUAGAGAGGUUAUCCGCUCACAGAGAUCGGAAGAGCACACGU

In the series the target is T1, EsCas13d, nuclease-dead. The series is described as follows: crRNA (strand 1, pre-loaded); Mg2+; 40 mM Tris-HCl pH 7.5, 150 mM NaCl, 6 mM MgCl2, 1 mM DTT, 0.1% Tween-20, 0.2 mg/ml BSA; 25 C; 10 min per concentration, then washed. As to conditions: tags: His6-TwinStrep-SUMO cleaved; N-terminal SNAP kept (SNAP-Surface 488); label: 3' end held by stalled T7 RNA polymerase.
Turning to B1, the dissociation constant (Kd) was about 47.5 nM.

B2 displayed a Kd of 19.9 ± 2.4 nM.

For the molecule B3, the affinity, expressed as Kd, was 20.9 ± 3.75 nM.

The molecule B4 came in with a Kd of 17.7 ± 4.45 nM.

Regarding B5, binding was put at a Kd of 18.2 ± 1.25 nM.

For B6, the Kd was about 52 nM.

In the case of B7, the Kd came out at 33 ± 6.5 nM.

The molecule B8 returned a Kd of 14.1 ± 1.8 nM.

Consider B9, for which the Kd is 25 ± 5 nM.

As for B10, the Kd was 19 ± 4 nM.

In the case of B11, the Kd turned out to be 22 ± 5.15 nM.

B12 yielded a Kd of 26.5 ± 9.5 nM.

Consider B13, for which the Kd came to 27 ± 7 nM.

Molecule B14 came in with a Kd of 29 ± 8 nM.

Consider B15, for which the Kd came out at 17.4 ± 2.25 nM.

Regarding B16, the Kd worked out at 20 ± 8.5 nM.

In turn, B17 came in with a Kd of 14.3 ± 2.8 nM.

In turn, B18 displayed a Kd of about 56 nM.

In turn, B19 showed a Kd of 13 ± 2.45 nM.

Regarding B20, the Kd was 16.9 ± 2.4 nM.

In turn, B21 registered a Kd of 12.8 ± 2.6 nM.

In turn, B22 returned a Kd of 15.5 ± 4 nM.

In turn, B23 had a Kd of 10.1 ± 0.6 nM.

B24 registered a Kd of 19 ± 5.5 nM.

Molecule B25 yielded a Kd of 27.5 ± 9.5 nM.

In turn, B26 showed a Kd of 39.5 ± 18 nM.

Molecule B27 showed a Kd of about 9.5 nM.
